This note sets out measurements from patent US20230399394A1 (SUNSHINE GUOJIAN PHARMACEUTICAL SHANGHAI, published 2023).

The target of experiment [1] is T1, IL-33 mutant protein L50A (human, UniProt O95760 112-270).
T1 construct: Prokaryotic expression
T1 chain: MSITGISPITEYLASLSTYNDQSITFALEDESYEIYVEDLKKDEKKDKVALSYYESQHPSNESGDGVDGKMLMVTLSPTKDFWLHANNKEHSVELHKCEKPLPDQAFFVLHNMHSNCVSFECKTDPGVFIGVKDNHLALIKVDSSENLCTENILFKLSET
As to the kind of experiment: ELISA as Example 9; row L50A. The protocol: (§1) SA protein was diluted to 2 μg/mL to coat ELISA plate at 100 μL/well overnight at 4° C. The plate was washed with PBST (PBS containing 0.05% Tween20) for 3 times, and blocked with 2% BSA prepared in PBS at 200 μL/well, at room temperature for 2 h. After the plate was washed twice with PBST, IL-33-his-biotin protein was diluted to 1 μg/mL with 1% BSA prepared in PBST, and was added to ELISA plate at 100 μL/well. The plate was incubated at room temperature for 1 h, and each monoclonal antibody was diluted with 1% BSA prepared in PBST in a 3-fold gradient. The highest concentration of antibody was 10 μg/mL, and the antibody was diluted for 12 gradients. Each diluted monoclonal antibody was added to ELISA wells with 100 μL/well, and the plate was incubated at room temperature for 1 h. Each sample was added to duplicate wells in parallel. The plate was washed with PBST for 3 times, and HRP-anti human IgG Fc secondary antibody prepared with PBST was diluted at an appropriate ratio, and was added to ELISA wells at 100 μL/well. […] Each reaction solution was shaken uniformly and OD450 nm was read on a microplate reader. The data was analyzed and EC₅₀ was calculated.
(§2) Subsequently, according to the experimental method of Example 9, the affinity of the above mutant proteins to 874F7-Hu1 was determined, and IL-33 proteins (WT-1, WT-2, WT-3, and WT-4) without any mutation were set as controls.

Experiment [2] addresses T2, IL-33 mutant protein S60A (human, UniProt O95760 112-270).
T2 construct: Prokaryotic expression; also called 560A
T2 chain: T1 chain with A50L, S60A
As to the kind of experiment: ELISA as Example 9; row S60A against WT-1. How it is done: as §1, §2

Experiment [3] addresses T3, IL-33 mutant protein D65A (human, UniProt O95760 112-270).
T3 construct: Prokaryotic expression
T3 chain: T1 chain with A50L, D65A
As to the kind of experiment: ELISA by the method of Example 9 with the IL-33 mutant protein on the plate, 874F7-Hu1 in serial dilution, HRP anti-human IgG Fc, absorbance 450 nm.

The target in experiment [4] is T4, IL-33 mutant protein V49A (human, UniProt O95760 112-270).
T4 construct: Prokaryotic expression
T4 chain: T1 chain with V49A, A50L
As to the kind of experiment: ELISA as Example 9; row V49A against WT-2. How it is done: as §1, §2

For experiment [5], the target named is T5, IL-33 mutant protein K48A (human, UniProt O95760 112-270).
T5 construct: Prokaryotic expression
T5 chain: T1 chain with K48A, A50L
As to the kind of experiment: ELISA as Example 9; row K48A against WT-2. The protocol:
as §1, §2

Experiment [6] addresses T6, IL-33 mutant protein N61A (human, UniProt O95760 112-270).
T6 chain: T1 chain with A50L, N61A
As to the kind of experiment: ELISA as Example 9; row N61A. How it is done: as §1, §2

In experiment [7] the target is T7, IL-33 mutant protein L51A (human, UniProt O95760 112-270).
T7 construct: Prokaryotic expression
T7 chain: T1 chain with A50L, L51A
As to the kind of experiment: ELISA as Example 9; row L51A. The protocol:
as §1, §2

In experiment [8] the target is T8, IL-33 mutant protein E62A (human, UniProt O95760 112-270).
T8 construct: Prokaryotic expression
T8 chain: T1 chain with A50L, E62A
As to the kind of experiment: ELISA as Example 9; row E62A. The protocol:
as §1, §2

In experiment [9] the target is T7, IL-33 mutant protein L51A. As to the kind of experiment: ELISA as Example 9; row L51A against WT-2. How it is done:
as §1, §2

Experiment [10] has as its target T9, IL-33 mutant protein K45A (human, UniProt O95760 112-270).
T9 construct: Prokaryotic expression
T9 chain: T1 chain with K45A, A50L
As to the kind of experiment: ELISA as Example 9; row K45A against WT-1. The protocol:
as §1, §2

Where a chain is given by its changes, count along the chain named. Some results are limits rather than exact numbers.

B1: 874F7-Hu1 (antibody, human IgG4 S228P, kappa)
heavy: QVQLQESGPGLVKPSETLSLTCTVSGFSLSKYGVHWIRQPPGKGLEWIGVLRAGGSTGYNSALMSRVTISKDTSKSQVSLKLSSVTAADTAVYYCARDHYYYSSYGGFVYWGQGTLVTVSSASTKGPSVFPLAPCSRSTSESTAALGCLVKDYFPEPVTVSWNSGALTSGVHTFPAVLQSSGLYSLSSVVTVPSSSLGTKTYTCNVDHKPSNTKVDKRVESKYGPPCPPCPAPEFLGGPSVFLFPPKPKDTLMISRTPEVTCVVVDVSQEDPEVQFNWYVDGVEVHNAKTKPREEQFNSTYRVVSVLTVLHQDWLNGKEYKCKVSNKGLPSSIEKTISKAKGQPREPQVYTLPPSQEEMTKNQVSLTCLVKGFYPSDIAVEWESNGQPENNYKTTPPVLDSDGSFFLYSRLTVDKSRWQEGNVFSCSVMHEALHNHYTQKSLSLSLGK
light: DIQMTQSPSSVSASVGDRVTITCLASQTIGAWLAWYQQKPGKSPKLLIYAATRLADGVPSRFSGSGSGTDFTLTISSLQPEDFATYYCQQLDSSPYTFGQGTKVEIKRTVAAPSVFIFPPSDEQLKSGTASVVCLLNNFYPREAKVQWKVDNALQSGNSQESVTEQDSKDSTYSLSSTLTLSKADYEKHKVYACEVTHQGLSSPVTKSFNRGEC
notes: also called 874F7-Hul; humanized antibody 874F7-Hu1
Take B1: the concentration giving a half-maximal response (EC50) turned out to be 3.34 nM in experiment [1], 0.15 nM in experiment [6], 0.91 nM in experiment [7] and 0.15 nM in experiment [8]. In addition, the Affinity decline ratio is 23.2 fold in experiment [2]; above 25 fold in experiment [4]; 3.7 fold in [5]; 6.8 fold in experiment [9]; above 25 fold in [10]. Further, the “EC50 (read off the curve)” value in experiment [3] was around 2 nM.
